From US20200277374A1 (Alector, published 2020)

How the values were obtained:
[1] = molecular target: T1, human Siglec-7 expressed on human cells (primary monocytes, dendritic cells, macrophages, NK cells, … (human, UniProt Q9Y286 19-467)); assay: cell-based or functional assay
[2] = molecular target: T1, human Siglec-7 expressed on human cells …; assay: cell-based or functional assay; remark: listed apart in the source
[3] = molecular target: T2, Histidine-tagged human Siglec-7 (NovoProtein) (human, UniProt Q9Y286 19-357, limits assumed); assay: SPR (BiaCore T200, 25 C), antibody captured on anti-mouse IgG, Siglec-7-His 100 nM, single-concentration kinetics
T2 construct: Bought protein; also called purified Siglec-7-his tagged protein; not shown: histidine tag
T2 sequence (Q9Y286 19-357 limits assumed): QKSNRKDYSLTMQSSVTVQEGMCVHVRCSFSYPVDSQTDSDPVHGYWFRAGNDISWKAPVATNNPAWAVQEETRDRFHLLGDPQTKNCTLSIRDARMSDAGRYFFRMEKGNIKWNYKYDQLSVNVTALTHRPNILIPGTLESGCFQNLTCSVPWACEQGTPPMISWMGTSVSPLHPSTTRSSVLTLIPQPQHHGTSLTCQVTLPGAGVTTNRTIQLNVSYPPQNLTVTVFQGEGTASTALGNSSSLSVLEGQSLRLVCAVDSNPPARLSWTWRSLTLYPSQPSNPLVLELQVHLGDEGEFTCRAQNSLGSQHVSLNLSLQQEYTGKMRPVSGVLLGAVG
Experimental: SPR data was collected at a rate of 10 Hz at 25′ C on a BiaCore T200 instrument. Data analysis was performed using BiaCore T200 Evaluation Software, version 2.0. HBS-EP+ (100 mM HEPES, 1.5 M NaCl, 30 mM EDTA, 0.5% v/v Surfactant P20, pH 7.4) was used as running buffer and for preparing reagents.
Mouse-derived antibodies (25 nM) against Siglec-7 were captured (60 s contact time, 30 μL/min flow rate, 0 s stabilization time) on a CM5 sensor chip (GE Healthcare) immobilized with anti-mouse IgG. Histidine-tagged human Siglec-7 (NovoProtein) was then flowed over the captured anti-Siglec-7 surface (120 s contact time, 30 μL/min flow rate, 300 s dissociation time). Concentration of antigen ranged from 5 nM to 100 nM, depending on information obtained from an initial screen. Duplicate single-concentration trials were performed and bracketed by a blank (0 nM antigen) sample. The chip surface was regenerated in between cycles using 10 mM glycine-HCl, pH1.7 (60 s contact time, 30 μL/min flow rate, 60 s stabilization time). The resulting SPR signal was obtained as the difference in response from measurements performed on a blank flow cell.
Affinity constants (KD) were calculated from the ratio kd/kₐ. For one antibody (clone 1E8), we validated the single-concentration analysis with a multiple-concentration approach (five concentrations of antigen used, plus one blank).

[4] = molecular target: T1, human Siglec-7 expressed on human cells …; assay: FACS, human primary dendritic cells, 10 ug/ml mAb
Experimental: (§1) Initial characterization of Siglec-7 antibodies involved determining their ability to bind Siglec-7 expressed on human primary monocytes, human primary macrophages, human primary dendritic cells, human primary neutrophils, and human primary natural killer (NK) cells. Cells were harvested, plated at 10⁶/ml in a 96 well plate, and incubated in 100 ul PBS containing 2% FBS, 2 mM EDTA and 10 μg/ml Mab and Fc blocking reagent for 1 hour in ice. Cells were washed twice and incubated in 100 ul PBS containing 2% FBS, 2 mM EDTA and 5 ug/ml PE-conjugated secondary antibody for 30 minutes on ice. Cells were washed twice in cold PBS and analyze by flow cytometry on a BD FACS Canto. Data analysis and calculation of MFI values was performed with FlowJo (TreeStar) software version 10.0.7.
(§2) Percent positive binding and mean fluorescent intensity (MFI) values for cell types bound by Siglec-7 antibodies are listed in Table 4A. Binding is compared to an isotype control. The antibodies bind to human primary monocytes, human primary dendritic cells, and human primary macrophages. In Table 4A, “Buffer” refers to cells that were treated only with the PBS buffer described supra; “Secondary Ab” refers to cells that were treated only with the PE-conjugated secondary antibody; “mIgG1,” “mIgG2a,” and “mIgG2b” refer to isotype control antibodies; and “RDS7” refers to commerically available anti-Siglec-7 antibody Mab1138 (R&D Systems; Cat. No. MAB 1138).

[5] = molecular target: T1, human Siglec-7 expressed on human cells …; assay: FACS, human primary macrophages, 10 ug/ml mAb
Experimental: as §1, §2

[6] = molecular target: T1, human Siglec-7 expressed on human cells …; assay: FACS, human primary monocytes, 10 ug/ml mAb
Experimental: as §1, §2

[7] = molecular target: T3, Siglec-7-Fc (plate immobilized) (human, UniProt Q9Y286 19-357, limits assumed); assay: RBC solid adhesion assay, plate-coated Siglec-7-Fc, antibody 0.5 or 1.0 ug/ml; % of RBC binding without antibody
T3 construct: also called Siglec-7-Fc protein; immobilized Siglec-7; not shown: Fc part
T3 sequence (Q9Y286 19-357 limits assumed): as above
Experimental: To determine which antibodies compete with ligand binding to Siglec-7, a red blood cell (RBC) solid adhesion assay was carried out in accordance with standard protocols (Kelm et al., Current Biology, 1994). Red blood cells are highly decorated with glycoproteins containing sialic acids: therefore, the ability of an antibody to block RBC binding to immobilized Siglec-7 can be used to determine ligand interference. Briefly, 5 μg/ml Siglec-7-Fc was coated overnight at RT in 96 well Immunolon plates, then washed with PBS, blocked for one hour with binding buffer (PBS containing %0.25 BSA 1 mM CaCl₂), Siglec-7 antibodies (0.5 μg/ml or 1.0 μg/ml) were bound for one hour at RT with gentle rocking. After removal of unbound antibody, red blood cells were added to each well at a concentration of 3.0×10⁶ cells per ml and incubated at RT for one hour. Unbound RBCs were then carefully washed off 3× with PBS, and water was added to each well for hypotonic lysis of bound RBCs. The plate was transferred to −80° C. for 10 minutes, followed by 37° C. for 15 minutes. Bound RBCs were detected by peroxidase activity, followed by 2N sulfuric acid to stop the reaction. Signal was detected at […]. Data was calculated as a percent of RBC binding to plate bound Siglec-7-Fc in the absence of antibody.

T1 sequence (Q9Y286 19-467): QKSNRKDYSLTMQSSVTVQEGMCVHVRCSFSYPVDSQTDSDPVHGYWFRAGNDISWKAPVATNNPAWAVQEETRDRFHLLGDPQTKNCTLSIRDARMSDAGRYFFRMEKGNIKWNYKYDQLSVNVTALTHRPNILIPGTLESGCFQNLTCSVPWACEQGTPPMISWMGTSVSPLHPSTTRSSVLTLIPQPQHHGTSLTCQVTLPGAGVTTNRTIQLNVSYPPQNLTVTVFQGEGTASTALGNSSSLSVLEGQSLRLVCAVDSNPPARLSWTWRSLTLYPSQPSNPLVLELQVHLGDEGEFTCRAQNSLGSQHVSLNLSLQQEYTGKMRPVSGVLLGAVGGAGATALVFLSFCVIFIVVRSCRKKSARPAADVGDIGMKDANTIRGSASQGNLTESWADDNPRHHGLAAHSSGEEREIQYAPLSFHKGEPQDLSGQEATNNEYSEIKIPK

Row | Percent Siglec-7 Surface Expression, DCs [1] | Percent Siglec-7 Surface Expression, Monocytes [1] | Percent Siglec-7 Surface Expression, U937 cells [1] | Percent Siglec-7 Surface Expression, Macrophages [2] | Percent Siglec-7 Surface Expression, Microglia [2] | Percent Siglec-7 Surface Expression, NK cells [2] | Kd [3] | % Positive [4] | MFI [4] | % Positive [5] | MFI [5] | % Positive [6] | MFI [6] | Percent RBC Binding to Siglec-7 [7] | Binder
1 | 100% | 39.9% | 87.3% | 13.4% | 28.6% | 136% | 0.6 nM | 99.7% | 6090 | 99.4% | 15800 | 99.3% | 505 | 16.5% | anti-Siglec-7 antibody 1A12 (antibody, V domains shown, also called 1Al2) VH: QVQLQQSGSELRSPGSSVKLSCKDFDSEVFPITYMNWVRQKPGHGFEWIGDILPSIGRTMYGEKFEDKATLDADTVSNTAYLELNSLTSEDSAIYYCARSEGYLLAYWGQGTLVTVSA VL: DVZMTQTPLSLPVSLGDQASISCRSSQSLVHSTGNTYLHWYLQKPGQSPKLLIYKVSNRFSGVPDRFSGSGAGTDFTLKISRVEAEDLGVYFCSQNTHVPYTFGGGTKLEIK
2 | 19.3% | 8.1% | 75.2% | 5.7% | 11.5% | 50.7% | 9.5 nM | 98.4% | 845 | 99.8% | 2380 | 93.3% | 278 | 89.3% | anti-Siglec-7 antibody 7E11 (antibody, V domains shown, Variable domains assembled from FR and CDR entries) VH: QVQLKQSGPVLVAPSQSLSITCTVSGFSLSNYGVHWVRQFPGKGLEWLGVIWAGGITNYNSVLMSRLSISKDNSKSQVFLKMNSLQTDDTAMYYCAKQGGTSFSYWGQGTLVTVSA VL: DIQMTQSPASQSASLGESVTITCLASQTIGTWLAWYQQKPGKSPQLLIYAATSLADGVPSRFSGSGSGTKFSFKISSLQAEDFVSYYCQQLYSTPYTFGGGTKLEIK
3 | 73.3% | 33.9% | 84.7% | 24.1% | 44.3% | 87.6% | 2.9 nM | 26.1% | 250 | 99.4% | 4260 | 90.5% | 262 | 96.5% | anti-Siglec-7 antibody 4D7 (antibody, V domains shown, Variable domains assembled from FR and CDR entries) VH: QVQLQQSGAELVKPGASVKLSCKTSGYTFTNYWINWVKQRPGQGLEWIGNIYSGSSRTNYNEKFKSKATLTVDTSSSTAYMQLSSLTSDDSAVYYCAREGLRAMDYWGQGTSVTVSS VL: NZMTQFQKFMSTSVGDRVSLTCKASQKVGTNVAGFQQKPGHSPKAGIYSASTRHRGVQDRFTARGLGSDFILPITTZQLEDLAEYZCHQGNSVQYTFGGGTKLEIK
